Data taken from PMC8542614.
Where “and” joins values, the source holds several entries; their conditions need not be identical. Identical values can stand only once. Like-named read-outs stand apart in the source and are kept apart here.

Columns and labels:
[1] = molecular target: HCV E2 ectodomain (eE2), full length, residues 384-656, genotype J6 (HCV genotype J6); test: ITC
[2] = molecular target: HCV E2 ectodomain (eE2), full length, residues 384-656, genotype J6 (HCV genotype J6); test: ITC; remark: listed apart in the source

B1: human CD81 large extracellular loop (hCD81-LEL), residues 112-202 (domain or fragment)
chain: GFVNKDQIAKDVKQFYDQALQQAVVDDDANNAKAVVKTFHETLDCCGSSTLTALTTSVLKNNLCPSGSNIISNLFKEDCHQKIDDLFSGKL
Kd [1]: 681 nM
dH [1]: -7.89 kcal/mol and -6.65 kcal/mol
stoichiometry N [1]: 0.99 and 0.86
Kd [2]: 773 nM
